Test: soluble on expression in E. coli; label from the status in PepcDB or PDB records

Sequence | soluble on expression in E. coli
MGSDKIHHHHHHMQWDVIVVGGGPSGLTMAAELAGSGVRTLVLERRTDGVQSRAGTIMPRVLELLDARGIAHRFIEKTRAISNYPFRPSHIWAGFHPINWKYLESRFGFTLGLPQNHTEEILGAWAAECGAEIRTGMEVLDVRQSDDAVEIDVLDVAGTVATLHARYAVGADGGRSVVRNRLGLPFEGHSGTFRGIVIDAELHAPWPGGRVNVDNEMGWVRGYVFGDGVTRFNIVHRDRRHAPKDEPVTLEEALQCIRDVHGTDYGIRAFRWASRFDDQMRMVSSLRKGRVFLVGESARIHYPASGVGMNFCLQDAFNLGWKLANVINGVADPSTLDTYDAERLPVMHALLESVKAQCALQFNFEPDAVALKRRMQEHIIPLPDVQRKLVLELSGLEAPYPRAPSSHSLTGQRCPDLDLLLPDGSAVAVTQTLRERRFVLLDLEGFSRQFAALNLSGWPVTVLAARAARIPASMEGVKALLLRPDGYVAWAATDVAQAAEAEAQLAKWLKR | not soluble
MTIYVVTPTYARLVQKAELVRLSQTLSLVPRLHWLLVEDAEGPTPLVSGLLAASGLLFTHLVVLTPKAQRLREGEPGWVHPRGVEQRNKALDWLRGRGGAVGGEKDPPPPGTQGVVYFADDDNTYSRELFEEMRWTRGVSVWPVGLVGGLRFEGPQVQDGRVVGFHTAWEPSRPFPVDMAGFAVALPLLLDKPNAQFDSTAPRGHLESSLLSHLVDPKDLEPRAANCTRVLVWHTRTEKPKMKQEEQLQRQGRGSDPAIEV | soluble
MSLIARRNPIEQLPAIAQDPDKFGVLLSAAEFRTHLVESIRQARKRIYLVALYLENDDAGREILTELYAAKQRNPGLEIHICVDWHRAQRGLIGAAESEGNAAMYRDFAQQHEHCIPVYGIPVRGREVFGVLHLKGFIIDDQVIYSGASLNNVYLQFHGRYRFDRYHTLENAELADSMVHFIQQEMLAHPAVNNLACGSKPTTKEIKSDIRQFRASLAQANYQFAKQKVNEGQVAVTPLVGLGRRRNRLNQSIIQLLASAKDEVFICTPYFNFPPSIAKEVKKALRRGVKVHIVIGDKTANDFYIAPEEPFKTIGGLPYLYELNLRRFAKANEAHIASRKLSIHLWKHENHSFHLKGIWVDKRYMLITGNNLNPRAWKLDLENAILIRDDYHHLTTKFEAEIDNILQHTQLICTYKQIEKPEHYPEKVQRLVRRIMRLKADRVLKQILEGHHHHHH | not soluble
GMPQPTVLLLARADLSPVGTEFTTGPIDAHDPFDSGRRTAFVDEQGIAAGIVEFGTALSVEAYPYTEMLVMHRGSVTLTSGTDSVTLSTGESAVIGRGTQVRIDAQPESLWAFCASTQASGPDKSGITALDRLALLTPSSPPDPSIMISPLPQCRSNNLFEDTASTLRIGVWDSTPYERISRPHKIHELMNLIEGRVVLSLENGSSLTVNTGDTVFVAQGAPCKWTSTGYVRKFYAVT | soluble
MSLTNRSGKDFADEKLLTVLAEVERDLEITYDDLQKQAIIGAMNQQFFILTGGPGTGKTTIINGFIETYARLHQLDLDPDHYNDDVFPILLAAPTGRASRRMNELTGLPAATIHRHLGLGQDEAEDALGNELSGALLIVDEFSMVDTWLANKLFQAIPGSMKVLLVGDADQLPSVGPGQIFADLLKIPEIPSVKLDKIFRQGDDSTITDLAHHIKDGQLPSDFTAKKPDRSYFEVSANFVPQMVEQIASAWQKRGNNPFELQILAPMYKGMAGINAMNVLLQNLFNPLNDRLEFALGDMKFREGDKVLHLVNDAEANVFNGDLGQIVELIAAKYTDSKQDELVMDFDGQELTYPRAEWYKITLAYAMSIHKSQGSEFSTVIVPMVSSYSRMLERNLLYTAITRAKQSLILLGEERAFAQAVAREGANRKTYLIERFMGENEGHHHHHH | not soluble
MTVVLTLLLLLVLVGCAKPKVEQTVKLGGAVKTIGDLVVLSGNSNLPKGAVVQIVMKEIEGGKQVLEEKVKVGGDGSYSWSAKRPERAKEYELDVMFLPELQPKHVKEKYGEKGELIKKDSSGRVEYQTDGQTYVGIKMYDRILKIGDGMGGQQSMLAETLPPPPPSY | not soluble
MQEIIFIDEGSFPTPEGVTREWVQGAAENRDEDEKLFSIIREAFQIKIDAGVQVPTYPQFRDMIGQFFDIIKDEKNCHEPYVLKEERATILELEAIDEVAKQYKIETGKTLEVRVCIAGPTDMYYQAFGATAFVDVYDILAKDIEKFIKQAFKTAKNFKIKVIALDEIGLGLNDKIQFSDDEIISALTVASTFARQQGADVEIHVYSPLKYELICETPINVIGFEYAGNPSYIDLLDRKVLEDSDAYAGVGISRTDIFSLISIVNEKYGINAWKDKEYMQKIVTELETPDIIKKRLETAYSVLGDRIKYANPDCGLAFWPDQELAFRLLENTAKAVNEFNAEGIINKAAALEHHHHHH | not soluble
MAHHHHHHMEKKKKESTIKISLNINTKFNESYLDEQNDIINEALIKNNNKEIIHSLNLIENIRQGTFDYKDLREVYFMNDNDLFSMLNDKKASEEKGKGKEDAHNNNNIDNKICNNDKVGDKNKKLSNNNNNNGNDLNIQIEGDQNYNFNKNNETNIFVLDNDVDKVCIIRFPFSVSKDIKKYLLNKNLDMVIQPTTLLNSRFFLIHFKNINKKFHGILLELSTHIEIHKTLDRNNLYKSNDVSQMIYVYEHNTNSKELLKKFINNNFELCGGISKKLNHFIFQNHTKLFKYHDIYFAEKLIYEYLNTPYYDYFDLYVKTLNEMHNHIIMEKENNNKQNEIVDETTDLAAILGSLDNSYNIMNLIEKQDGDIDFEALLNYDIEKENYESDVSDLLLGGTYYLQKK | not soluble
NPAIAMTEKEIKEYGFPFDARFCSLPLVHADDLKQIFGRYASEVCCRYLRPFDSDYYTLATKNFYQTDIAALDPTAVVGGEDTIRGLMRVATEVCFVIESGKPGAFHPRIHFEKSFRYAHLSLEEKKAWQRLSDDYFHKRNDDLWKQEALSRLIPLLSSTDMLVCVEDLGMIPPAVPVVMEQLQLLSLILERISKEPGQDFADMSRQPYCSVCTTSTHDMAPLRLWWQENELPRRHYYSMILGEKGTAPETCTPETARRILRQHLLSTSMLAIFPLADWLSLSGELQGIVAPEDEQINKPEISDHYWRYRMPISIESLSEDYRELNESIASLIRTSGRG | not soluble
MNRSRLLLLGAEAVAQGAIDAGLSGVYAYPGTPSTEITEYIQRSAPARQSGIRSAWSANEKTAYEAALGMSYAGKRSLVCMKHVGLNVAADAFMNSAITGVNGGLVLAVADDPSMHSSQNEQDSRVYGRFAMVPVLEPASQQELYDAMFHAFELSEAVRLPVIMRMTTRLSHSRAGVELKASLEQNPLSAE | not soluble
MGSDKIHHHHHHMSIEFSRWPNNYMMSYQVTKALGLASLGATDVTEIYEACKKIDPNDKETWHREWLITAETLERHGKEAEAVGNWYTARNCYIRACNYNRIAEYTVMDDDNEKIRIFRKVNELFEAAGKYFDVKPEKIQVDYEDVKLDGYFFSPSWIKGPKPTILALNGGDEWSIENYFWLGPAFISCGYNFMVYDQPGTGLSMYEKGKGRRADSEAFHSRAIDFLLTRPEVDPNKIIVHGESFAAYDSLRFASFDHRIAAVISDGGTHAFDWEAMLKWMPPSLAGHGMRILGAKSLDDFAENPRFAYNLEGVLHQIECPLLVMHGAEEILVQPNPLTQALKNYEQAGSKNKTFFPIEDRRIGGLEHCQVDNINVLHEVVLNWLCSIGLGPFAPRPSDC | not soluble
MIPLVSIIVPMYNVEPFIEECIDSLLRQTLSDIEIILVNDGTPDRSGEIAEDYAKRDARIRVIHQANGGLSSARNTGIKAARGTYIGFVDGDDYVSSAMFQRLTEEAEQNQLDIVGCGFYKQSSDRRTYVPPQLEANRVLTKPEMTEQLKHAHETRFIWYVWRYLYRRELFERANLLFDEDIRFAEDSPFNLSAFREAERVKMLDEGLYIYRENPNSLTEIPYKPAMDEHLQKQYQAKIAFYNHYGLAGACKEDLNVYICRHQLPMLLANACASPNSPKDIKKKIRQILSYDMVRQAVRHTPFQHEKLLRGERLVLALCKWRLTFLIKLFFEQRGTMKGSAKQALEHHHHHH | not soluble
MNPIVINRLQRKLGYTFNHQELLQQALTHRSASSKHNERLEFLGDSILSYVIANALYHRFPRVDEGDMSRMRATLVRGNTLAELAREFELGECLRLGPGELKSGGFRRESILADTVEALIGGVFLDSDIQTVEKLILNWYQTRLDEISPGDKQKDPKTRLQEYLQGRHLPLPTYLVVQVRGEAHDQEFTIHCQVSGLSEPVVGTGSSRRKAEQAAAEQALKKLELE | soluble
SPNSQYLKTRILDIYTPEQRAGIEKSEDWRQFSRRMDTHFPKLMNELDSVYGNNEALLPMLEMLLAQAWQSYSQRNSSLKDIDIARENNPDWILSNKQVGGVCYVDLFAGDLKGLKDKIPYFQELGLTYLYLMPLFKCPEGKSDGGYAVSSYRDVNPALGTIGDLREVIAALHEAGISAVVDFIFNHTSNEHEWAQRCAAGDPLFDNFYYIFPDRRMPDQYDRTLREIFPDQHPGGFSQLEDGRWVWTTFNSFQWDLNYSNPWVFRAMAGEMLFLANLGVDILRMDAVAFIWKQMGTSCENLPQAHALIRAFNAVMRIAAPAVFFKSQAIVHPDQVVQYIGQDECQIGYNPLQMALLWNTLATREVNLLHQALTYRHNLPEHTAWVNYVRSHDDIGWTFADEDAAYLGISGYDHRQFLNRFFVNRFDGSFARGVPFQYNPSTGDCRVSGTAAALVGLAQDDPHAVDRIKLLYSIALSTGGLPLIYLGDEVGTLNDDDWSQDSNKSDDSRWAHRPRYNEALYAQRNDPSTAAGQIYQGLRHMIAVRQSNPRFDGGRLVTFNTNNKHIIGYIRNNALLAFGNFSEYPQTVTAHTLQAMPFKAHDLIGGKTVSLNQDLTLQPYQVMWLEIA | soluble
MSLSHVFEALSTETLPVRLGGNAAMKEKVGSDSSRWAIREVGDGNLNLVFIVTGEAGAVIVKQALPYVRLVGESWPLPLKRSFFEYHALKRQGARDPGMVPEILFFDEAQAIIVMEFLTPHIILRRALIDGRELPKIGRDLGLFVARTLFRGSDLSMVTREKKADVALFSDNVELCDITENLVFSDPYFEAKLNHHTTPQLDPIVAELRADRELKVEAQRLKHLFSAKAETLCHGDLHTGSVMVTDDETRVIDPEFAFYGPISFDVGMLIANFWMSYFSQAGHETAPGARDSMRAYLLDTIDTLWETFRAEFAALWRTERKGILYQASLFEDRQDPLAAEQALNIVIDEIWHEMLGFAGIETHRRILGLAHNADFETITDPDRRASCESKALKFGRHLAVNRQRIHSLRDIRETVERLEKEILAEGHHHHHH | soluble
NGAFFCNECDCRFSEEASLKRHTLQTHSDK | soluble
MKFKKLFSRLLLATGIMFAGTFTYQNIEHTHVSKAASYNYYTKGQCTWWAYQRRAQLGKPVSNRWGNAKNWYYNAKRSGYRTGHTPKRYAVMQSTAGYYGHVAVVERVYSNGSIKVSEYNYNRPSAYGTRYLSKWSARNYNYIYLEHHHHHH | not soluble
MGSDKIHHHHHHMATLSDFNRDGKRYVALNGVGDDQDQSILFDHVSSYDLIRSFVDANCNWSRVLESRKNQWKPSILPEADGLAYNPPGKPEDIRNCTVSAFGNTHKTINNSLSSQKDVDWFYKGNGTTVIGTDHPLISNLNSYGCGIEIEYAAVFMINAAGDPVYIGYTIANDFSDAEMRRRMPSLANLSKLATTSFGRFLFLAPIPTKTEIACTILRHGKPAWRVNGQLGSEAMKYSFSYLNELLFQNQSIKGDAYTIHYMLLGASISSNKAEFDMKHSDIILVHDEDNNVILRNEYIDEAIVCACC | not soluble
MGSDKIHHHHHHMERQARIIAFYATNENVGKSTLSIAMANELAHLGKKVLYVEADQVRPSFAVGTGLSHDSKNILELVRKENEYNLSQYICTKQDLLERKMNPRLMQKLHDKMDFLVFPSGYNLAQFPEIQNKELFVTTFIESLVDTEYDSIILSVPTELSEVLSYPILYQSDLVIHVLNGNPRGAIAIKRELQLLEEAKLTLPRMIHVLNMADEDYVEDIEKLSSQKIAVTIPYDRDRTSYEWGMQFGSPQINTKVHHIMEAAGLDIPTQHTSSMKKGLFGLRN | not soluble

Reference: the DeepSol protein solubility set
